We go through one molecule from patent US20130288364, “ENGINEERED KINETOCHORES AND USES THEREOF” (Whitehead Institute for Biomedical Research, published 2013).

The target in one data set is CENP-T/CENP-W complex (Homo sapiens, UniProt Q96BT3;Q5EE01 Q96BT3:1-561,Q5EE01:1-88). As to the kind of experiment: EMSA; 10 mM Tris pH 7.9, 150 mM KCl, 1 mM EDTA, 4 mM DTT, room temperature; 500 ng protein, 50 ng probe. The following applies: tags: 6xHis-CENP-T (full length), untagged CENP-W, co-expressed from pST39 in bacteria; Gene ID 80152 / 387103; label: biotin. How it is done: (§1) In vitro DNA binding was assessed by Electro Mobility Shift Assay (EMSA). 500 ng of the indicated protein was incubated for 10 minutes at room temperature in binding buffer (10 mM Tris pH 7.9, 150 mM KCl, 1 mM EDTA, 4 mM DTT. 50 ng of a 20 bp biotinylated double stranded DNA probe […] corresponding to bp 21-40 of the alpha satellite DNA sequence was then added, and incubated for a further 20 minutes. Samples were then run on a 4% non denaturing arylamide gel, semi-dry transferred to nitrocellulose membrane, and blots processed using the Chemiluminescent nucleic acid detection system (Thermo) according to manufacturers instructions. Biotinylated DNA probe with detected with HRP-coupled streptavidin (Thermo).

The target of another data set is CENP-T-ΔN/CENP-W complex (Homo sapiens, UniProt Q96BT3;Q5EE01 Q96BT3:288-561,Q5EE01:1-88). Kind of data set: EMSA; retains DNA binding activity. The settings on record: tags: 6xHis-CENP-T, untagged CENP-W; label: biotin. How it is done: as §1
CENP-T-ΔN/CENP-W complex, sequence (Q96BT3 288-561, stated change not applied, chain 1 of 2): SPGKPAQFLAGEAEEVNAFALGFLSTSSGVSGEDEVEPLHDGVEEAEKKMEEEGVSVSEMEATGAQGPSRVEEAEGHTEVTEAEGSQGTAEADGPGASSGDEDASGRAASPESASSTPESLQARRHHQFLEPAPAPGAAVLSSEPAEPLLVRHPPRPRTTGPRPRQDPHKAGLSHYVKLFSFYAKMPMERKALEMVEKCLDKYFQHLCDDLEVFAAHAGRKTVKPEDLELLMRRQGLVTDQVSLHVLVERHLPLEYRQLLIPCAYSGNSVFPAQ
CENP-T-ΔN/CENP-W complex, sequence (Q5EE01 whole entry, stated change not applied, chain 2 of 2): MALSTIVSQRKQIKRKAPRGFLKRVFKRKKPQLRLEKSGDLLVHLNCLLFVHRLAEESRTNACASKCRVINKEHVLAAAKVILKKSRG

CENP-T/CENP-W complex, sequence (Q96BT3 whole entry, chain 1 of 2): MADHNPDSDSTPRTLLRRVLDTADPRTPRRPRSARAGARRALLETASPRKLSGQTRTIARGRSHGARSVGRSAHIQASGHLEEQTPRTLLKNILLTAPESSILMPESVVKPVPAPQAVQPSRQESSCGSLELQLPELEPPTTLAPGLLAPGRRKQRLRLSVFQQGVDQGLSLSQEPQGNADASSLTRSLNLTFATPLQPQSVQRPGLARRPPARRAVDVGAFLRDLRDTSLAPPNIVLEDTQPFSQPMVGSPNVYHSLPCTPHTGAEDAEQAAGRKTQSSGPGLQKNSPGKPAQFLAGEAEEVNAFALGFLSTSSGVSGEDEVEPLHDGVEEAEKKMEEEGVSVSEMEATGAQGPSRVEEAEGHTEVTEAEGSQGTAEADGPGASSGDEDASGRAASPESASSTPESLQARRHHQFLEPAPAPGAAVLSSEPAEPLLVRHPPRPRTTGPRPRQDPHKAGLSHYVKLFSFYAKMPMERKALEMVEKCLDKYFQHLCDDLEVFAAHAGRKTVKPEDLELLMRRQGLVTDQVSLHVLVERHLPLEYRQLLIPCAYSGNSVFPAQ
CENP-T/CENP-W complex, sequence (Q5EE01 whole entry, chain 2 of 2): as the sequence (Q5EE01 whole entry, stated change not applied, chain 2 of 2) above

B1: alpha-satellite 20 bp probe (bp 21-40) (dsDNA)
DNA 1: CCTTTGAGGCCTTCGTTGGA
DNA 2: TCCAACGAAGGCCTCAAAGG
On to B1, for which the binding result with CENP-T/CENP-W complex and in the data set with CENP-T-ΔN/CENP-W complex was “binds” each time.
